This passage reports Kd, koff and kon results from article PMC6380599 (PLoS Pathogens, 2019).

This experiment has as its target T1, histidine tagged SFTSV Gn-Cκ (Gn ectodomain, strain Gangwon/Korea/2012) (SFTSV (Dabie bandavirus) strain …, UniProt U3GR55, strain).
T1 construct: source: HEK 293F or Expi293F, transfected, purified
Nature of the experiment: SPR; Biacore T200, […]; dissociation 5 min in PBS with 0.005% Tween20. The settings on record: both partners purified.

B1: Ab10 IgG1 antibody (antibody, V domains shown)
VH: EVQLVESGGGVVQPGRSLRLSCAASGFTFSGYGIHWVRQAPGKGLEWVALISYDGSNKYYADSVKGRFTISRDNSKNTLYLQMNSLRAEDTAVYYCAKDRDYFGSGFFDYWGQGTLVTVSS
VL: ELVMTQSPSSLSASVGDTVTITCRASQSIYTYLNWYHQTPGKAPKLLISAASSLQSGVPSRFSGSGSGTDFTLTISSLQPEDFATYYCQQYADVPVTFGGGTKLEIK
notes: also called Ab10 mAb; human IgG1 monoclonal antibody Ab10; source: HEK 293F, transfected, purified from culture supernatant (MabSelect)
On to B1, for which the Kd worked out at 0.104 nM, the off-rate constant (koff) stood at 7.7e-05 s⁻¹ and the kon came out at 740000 M⁻¹ s⁻¹.

In general, Kd refers to a measure of binding affinity in units of concentration. A low value points to a tighter complex. What is called koff is the first-order rate constant of dissociation. A word on the kon: it is the second-order rate constant of association.
